Assay results as given in article PMC4153549.

Tested on: Grsf1-GST
Test: EMSA
Conditions: 10 mM HEPES-NaOH pH 7.9, 25 mM KCl, 1.5 mM EDTA, 4% glycerol, 0.25 mM DTT, 7.5 ug/uL heparin, 25 ng/uL yeast tRNA, 20 min at 30 C; native 5% PAGE

Substance | Kd
Use1 dG4 probe (GGGG deleted from A(G)4A) | 4.4 µM
Use1 5'UTR WT A(G)4A probe | 0.527 µM
